Measured values: US20100255012A1
One block for each substance: values may come before it.

Columns and labels:
Assay in all cases: non-covalent nano-electrospray mass spectrometry at 0.01-10 µM, value at low concentrations; self-association
2F8-HG CH3 mutant F273A = target: 2F8-HG CH3 mutant F273A
2F8-HG-L236V = target: 2F8-HG-L236V
2F8-HG-Y275A = target: 2F8-HG-Y275A

- percentage molecules present as monomers (2F8-HG CH3 mutant F273A): 100%
Substance: 2F8-HG CH3 mutant F273A (antibody)

- percentage molecules present as monomers (2F8-HG-L236V): 100%
Substance: 2F8-HG-L236V (antibody)

- percentage molecules present as monomers (2F8-HG-Y275A): 100%
Substance: 2F8-HG-Y275A (antibody)
